{
  "source": "paper PMC7822592",
  "about": "“The half-life of the bone-derived hormone osteocalcin is regulated through O-glycosylation in mice, but not in humans” (eLife, 2020)",
  "assay": "In vivo half-life assay, serum OCN after intraperitoneal injection in Bglap-/- mice",
  "parameters": "species or system mouse",
  "details": "40 ng/g i.p.; for serum OCN: ELISA; for in vivo half-life: estimated from declining phase after maximum at 30 min, serum ELISA",
  "protocol": "For in vivo half-life assay, Bglap-/- male mice were injected intraperitoneally with 40 or 80 ng/g of body weight of mouse O-glycosylated ucOCN or non-glycosylated ucOCN, serum OCN level was analyzed at indicated time points using total mouse OCN ELISA. In all ex vivo and in vivo studies, mouse or human proteins were prepared in saline solution (0.9% NaCl) containing BSA (35 mg/ml) as a carrier.",
  "note": "No end group written: not given here. O‑glycan = not defined here",
  "data": [
    {"substance": "O-gly ucOCN: O-glycosylated uncarboxylated mouse osteocalcin produced and purified from HEK293 as Fc fusion, released by thrombin (YLGASVPS(O‑glycan)PDPLEPTREQCELNPACDELSDQYGLKTAYKRIYGITI; ends and bridges not checked; also: O-glycosylated (HexNAc, Hex, NANA); UniProt P86546 50-95, looked up)", "values": [
      {"measurement": "serum OCN", "setting": "Bglap-/- male mice fasted 16 hr, 15 min, mouse 1", "result": 24.4, "unit": "ng/mL"},
      {"measurement": "serum OCN", "setting": "Bglap-/- male mice fasted 16 hr, 15 min, mouse 2", "result": 19.4, "unit": "ng/mL"},
      {"measurement": "serum OCN", "setting": "Bglap-/- male mice fasted 16 hr, 15 min, mouse 3", "result": 16.3, "unit": "ng/mL"},
      {"measurement": "serum OCN", "setting": "Bglap-/- male mice fasted 16 hr, 15 min, mouse 4", "result": 21.1, "unit": "ng/mL"},
      {"measurement": "serum OCN", "setting": "Bglap-/- male mice fasted 16 hr, 15 min, mouse 5", "result": 17.9, "unit": "ng/mL"},
      {"measurement": "serum OCN", "setting": "Bglap-/- male mice fasted 16 hr, 30 min, mouse 1", "result": 30.7, "unit": "ng/mL"},
      {"measurement": "serum OCN", "setting": "Bglap-/- male mice fasted 16 hr, 30 min, mouse 2", "result": 26.9, "unit": "ng/mL"},
      {"measurement": "serum OCN", "setting": "Bglap-/- male mice fasted 16 hr, 30 min, mouse 3", "result": 24.6, "unit": "ng/mL"},
      {"measurement": "serum OCN", "setting": "Bglap-/- male mice fasted 16 hr, 30 min, mouse 4", "result": 23.6, "unit": "ng/mL"},
      {"measurement": "serum OCN", "setting": "Bglap-/- male mice fasted 16 hr, 30 min, mouse 5", "result": 20.9, "unit": "ng/mL"},
      {"measurement": "serum OCN", "setting": "Bglap-/- male mice fasted 16 hr, 60 min, mouse 1", "result": 27.5, "unit": "ng/mL"},
      {"measurement": "serum OCN", "setting": "Bglap-/- male mice fasted 16 hr, 60 min, mouse 2", "result": 23.9, "unit": "ng/mL"},
      {"measurement": "serum OCN", "setting": "Bglap-/- male mice fasted 16 hr, 60 min, mouse 3", "result": 23.9, "unit": "ng/mL"},
      {"measurement": "serum OCN", "setting": "Bglap-/- male mice fasted 16 hr, 60 min, mouse 4", "result": 20.4, "unit": "ng/mL"},
      {"measurement": "serum OCN", "setting": "Bglap-/- male mice fasted 16 hr, 60 min, mouse 5", "result": 19.0, "unit": "ng/mL"},
      {"measurement": "serum OCN", "setting": "Bglap-/- male mice fasted 16 hr, 90 min, mouse 1", "result": 26.3, "unit": "ng/mL"},
      {"measurement": "serum OCN", "setting": "Bglap-/- male mice fasted 16 hr, 90 min, mouse 2", "result": 20.0, "unit": "ng/mL"},
      {"measurement": "serum OCN", "setting": "Bglap-/- male mice fasted 16 hr, 90 min, mouse 3", "result": 21.1, "unit": "ng/mL"},
      {"measurement": "serum OCN", "setting": "Bglap-/- male mice fasted 16 hr, 90 min, mouse 4", "result": 17.6, "unit": "ng/mL"},
      {"measurement": "serum OCN", "setting": "Bglap-/- male mice fasted 16 hr, 90 min, mouse 5", "result": 15.7, "unit": "ng/mL"},
      {"measurement": "serum OCN", "setting": "Bglap-/- male mice fasted 16 hr, 120 min, mouse 1", "result": 21.6, "unit": "ng/mL"},
      {"measurement": "serum OCN", "setting": "Bglap-/- male mice fasted 16 hr, 120 min, mouse 2", "result": 17.9, "unit": "ng/mL"},
      {"measurement": "serum OCN", "setting": "Bglap-/- male mice fasted 16 hr, 120 min, mouse 3", "result": 18.4, "unit": "ng/mL"},
      {"measurement": "serum OCN", "setting": "Bglap-/- male mice fasted 16 hr, 120 min, mouse 4", "result": 17.6, "unit": "ng/mL"},
      {"measurement": "serum OCN", "setting": "Bglap-/- male mice fasted 16 hr, 120 min, mouse 5", "result": 15.6, "unit": "ng/mL"},
      {"measurement": "in vivo half-life", "setting": "Bglap-/- male mice fasted 16 hr", "result": 182, "unit": "min"},
      {"measurement": "in vivo half-life", "setting": "Bglap-/- male mice fasted 16 hr, listed as O-glycosylated ucOCN", "result": "~ 182 min"},
      {"measurement": "serum OCN", "setting": "fed Bglap-/- male mice, 15 min, mouse 1", "result": 46.2, "unit": "ng/mL"},
      {"measurement": "serum OCN", "setting": "fed Bglap-/- male mice, 15 min, mouse 2", "result": 44.9, "unit": "ng/mL"},
      {"measurement": "serum OCN", "setting": "fed Bglap-/- male mice, 15 min, mouse 3", "result": 53.1, "unit": "ng/mL"},
      {"measurement": "serum OCN", "setting": "fed Bglap-/- male mice, 15 min, mouse 4", "result": 55.0, "unit": "ng/mL"},
      {"measurement": "serum OCN", "setting": "fed Bglap-/- male mice, 15 min, mouse 5", "result": 58.1, "unit": "ng/mL"},
      {"measurement": "serum OCN", "setting": "fed Bglap-/- male mice, 15 min, mouse 6", "result": 56.8, "unit": "ng/mL"},
      {"measurement": "serum OCN", "setting": "fed Bglap-/- male mice, 15 min, mouse 7", "result": 44.9, "unit": "ng/mL"},
      {"measurement": "serum OCN", "setting": "fed Bglap-/- male mice, 15 min, mouse 8", "result": 33.3, "unit": "ng/mL"},
      {"measurement": "serum OCN", "setting": "fed Bglap-/- male mice, 15 min, mouse 9", "result": 33.3, "unit": "ng/mL"},
      {"measurement": "serum OCN", "setting": "fed Bglap-/- male mice, 15 min, mouse 10", "result": 59.4, "unit": "ng/mL"},
      {"measurement": "serum OCN", "setting": "fed Bglap-/- male mice, 30 min, mouse 1", "result": 51.1, "unit": "ng/mL"},
      {"measurement": "serum OCN", "setting": "fed Bglap-/- male mice, 30 min, mouse 2", "result": 72.5, "unit": "ng/mL"},
      {"measurement": "serum OCN", "setting": "fed Bglap-/- male mice, 30 min, mouse 3", "result": 64.1, "unit": "ng/mL"},
      {"measurement": "serum OCN", "setting": "fed Bglap-/- male mice, 30 min, mouse 4", "result": 65.1, "unit": "ng/mL"},
      {"measurement": "serum OCN", "setting": "fed Bglap-/- male mice, 30 min, mouse 5", "result": 69.7, "unit": "ng/mL"},
      {"measurement": "serum OCN", "setting": "fed Bglap-/- male mice, 30 min, mouse 6", "result": 73.2, "unit": "ng/mL"},
      {"measurement": "serum OCN", "setting": "fed Bglap-/- male mice, 30 min, mouse 7", "result": 40.4, "unit": "ng/mL"},
      {"measurement": "serum OCN", "setting": "fed Bglap-/- male mice, 30 min, mouse 8", "result": 59.8, "unit": "ng/mL"},
      {"measurement": "serum OCN", "setting": "fed Bglap-/- male mice, 30 min, mouse 9", "result": 47.5, "unit": "ng/mL"},
      {"measurement": "serum OCN", "setting": "fed Bglap-/- male mice, 30 min, mouse 10", "result": 72.5, "unit": "ng/mL"},
      {"measurement": "serum OCN", "setting": "fed Bglap-/- male mice, 60 min, mouse 1", "result": 25.1, "unit": "ng/mL"},
      {"measurement": "serum OCN", "setting": "fed Bglap-/- male mice, 60 min, mouse 2", "result": 44.3, "unit": "ng/mL"},
      {"measurement": "serum OCN", "setting": "fed Bglap-/- male mice, 60 min, mouse 3", "result": 31.5, "unit": "ng/mL"},
      {"measurement": "serum OCN", "setting": "fed Bglap-/- male mice, 60 min, mouse 4", "result": 48.0, "unit": "ng/mL"},
      {"measurement": "serum OCN", "setting": "fed Bglap-/- male mice, 60 min, mouse 5", "result": 45.3, "unit": "ng/mL"},
      {"measurement": "serum OCN", "setting": "fed Bglap-/- male mice, 60 min, mouse 6", "result": 33.8, "unit": "ng/mL"},
      {"measurement": "serum OCN", "setting": "fed Bglap-/- male mice, 60 min, mouse 7", "result": 15.4, "unit": "ng/mL"},
      {"measurement": "serum OCN", "setting": "fed Bglap-/- male mice, 60 min, mouse 8", "result": 40.4, "unit": "ng/mL"},
      {"measurement": "serum OCN", "setting": "fed Bglap-/- male mice, 60 min, mouse 9", "result": 23.7, "unit": "ng/mL"},
      {"measurement": "serum OCN", "setting": "fed Bglap-/- male mice, 60 min, mouse 10", "result": 29.5, "unit": "ng/mL"},
      {"measurement": "serum OCN", "setting": "fed Bglap-/- male mice, 90 min, mouse 1", "result": 11.0, "unit": "ng/mL"},
      {"measurement": "serum OCN", "setting": "fed Bglap-/- male mice, 90 min, mouse 2", "result": 19.1, "unit": "ng/mL"},
      {"measurement": "serum OCN", "setting": "fed Bglap-/- male mice, 90 min, mouse 3", "result": 10.0, "unit": "ng/mL"},
      {"measurement": "serum OCN", "setting": "fed Bglap-/- male mice, 90 min, mouse 4", "result": 23.7, "unit": "ng/mL"},
      {"measurement": "serum OCN", "setting": "fed Bglap-/- male mice, 90 min, mouse 5", "result": 20.1, "unit": "ng/mL"},
      {"measurement": "serum OCN", "setting": "fed Bglap-/- male mice, 90 min, mouse 6", "result": 15.5, "unit": "ng/mL"},
      {"measurement": "serum OCN", "setting": "fed Bglap-/- male mice, 90 min, mouse 7", "result": 7.2, "unit": "ng/mL"},
      {"measurement": "serum OCN", "setting": "fed Bglap-/- male mice, 90 min, mouse 8", "result": 19.6, "unit": "ng/mL"},
      {"measurement": "serum OCN", "setting": "fed Bglap-/- male mice, 90 min, mouse 9", "result": 11.8, "unit": "ng/mL"}
    ]}
  ]
}
